In series [1] the target is T1, RXFP3 (Homo sapiens, UniProt Q9NSD7).
T1 construct: expressed in transfected cells
T1 sequence (Q9NSD7 1-469): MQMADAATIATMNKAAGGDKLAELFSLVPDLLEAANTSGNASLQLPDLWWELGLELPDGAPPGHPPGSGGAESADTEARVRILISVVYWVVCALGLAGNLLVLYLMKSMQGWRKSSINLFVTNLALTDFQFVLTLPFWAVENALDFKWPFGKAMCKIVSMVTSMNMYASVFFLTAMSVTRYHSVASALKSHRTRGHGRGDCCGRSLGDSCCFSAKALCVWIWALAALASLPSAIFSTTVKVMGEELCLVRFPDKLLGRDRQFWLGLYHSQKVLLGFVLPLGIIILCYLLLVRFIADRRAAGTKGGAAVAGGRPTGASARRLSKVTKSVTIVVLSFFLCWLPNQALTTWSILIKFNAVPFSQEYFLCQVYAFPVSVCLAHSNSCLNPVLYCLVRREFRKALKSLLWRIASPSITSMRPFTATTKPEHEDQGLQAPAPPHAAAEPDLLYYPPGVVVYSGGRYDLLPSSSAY
Kind of series: Eu-H3B1-22R competition binding assay in CHO-K1-RXFP3 cells. Conditions: 5 nM Eu-H3B1-22R, mean ± SEM (n), Table 2, read-out: Eu-H3B1-22R pKi (converted). The method, then: An Eu-H3B1-22R competition binding assay was conducted in CHO-K1-RXFP3 cells.
(§1) Competition binding curves for each peptide were performed in triplicate and each experiment was performed independently at least three times. Fluorescent measurements were carried out at excitation of 340 nm and emission of 614 nm on a BMG POLARstar plate reader (BMG Labtech, Melbourne, Australia). Pooled data were presented as mean±S.E.M. of specific binding and are fitted using a one-site binding curve in GraphPad Prism version 8 (GraphPad Inc., San Diego, USA). Statistical analyses were conducted using one-way analysis of variance with uncorrected Fisher's least significant difference (LSD) post-hoc analysis in GraphPad Prism version 9.
(§2) Competition binding and cAMP activity assay were conducted by a procedure analogous to that described above for Example 3. The results are shown in FIG. 24 (RXFP3) and FIG. 25 (RXFP4).

Series [2] concerns the target T1, RXFP3. The experiment in a line: Inhibition of forskolin-induced cAMP activity in CHO-K1-RXFP3 cells (pCRE β-galactosidase reporter). It is filed as cell-based. Particulars: 5 μM forskolin, 6 hours, Table 2, read-out: cAMP pEC50 (converted). On the procedure:
Since RXFP3 is coupled to Gi/o proteins, peptides were tested for their ability to activate RXFP3 as measured via their ability to inhibit forskolin-induced cAMP activity in CHO-K1-RXFP3 or CHO-K1-RXFP4 cells transfected with a pCRE (cAMP Response Element) β-galactosidase reporter plasmid (as described in Belgi, A et al., Structure and function relationship of murine insulin-like peptide 5 (INSL5): free C-terminus is essential for RXFP4 receptor binding and activation. Biochemistry 2011, 50 (39), 8352-61; and Haugaard-Kedstrom, L. M et al., Synthesis and pharmacological characterization of a europium-labelled single-chain antagonist for binding studies of the relaxin-3 receptor RXFP3. Amino Acids 2015, 47 (6), 1267-71). For agonist assays, cells were stimulated with forskolin (5 μM for RXFP3, 1 μM for RXFP4)±increasing concentrations of each peptide for 6 hours. Data were expressed as the % forskolin activity, whereby 100% was defined as forskolin alone and 0% as maximum agonist stimulation (1 μM Analogue 2 for RXFP3 and 1 μM Analogue 13 for RXFP4). Data were analysed and plotted using GraphPad Prism 9 and are expressed as the mean±SEM of the pooled data. Statistical analysis was conducted using one-way ANOVA with Uncorrected Fisher's LSD post-hoc analysis using GraphPad Prism 9.
as §2

Series [3] has as its target T2, RXFP3 (Homo sapiens, UniProt Q9NSD7).
T2 construct: expressed in transfected cells; host or cells: HEK293T (transient, Lipofectamine 2000, pcDNA3.1/Zeo(+))
The experiment in a line: NanoBRET β-arrestin2 recruitment assay, RXFP3-NLuc / Venus-β-arrestin2 in HEK293T cells. It is filed as cell-based. On the procedure: (§3) The inventors assessed if H3B10-27(13/17αF) retained the ability to recruit β-arrestin2 and therefore display full agonist activity at RXFP3 and RXFP4, in comparison to Peptide 5.
The RXFP3 β-arrestin2 recruitment assay was carried out by PCR cloning NLuc onto the C-terminus of human RXFP3 in an identical manner to the RXFP3-rLuc8 construct to create pcDNA3.1-RXFP3-NLuc. The construct was sequenced on both strands to confirm that the NLuc was in frame with RXFP3 and there were no additional PCR mutations. pcDNA3.1-RXFP3-NL was tested in parallel with pcDNA3.1-RXFP3 in cAMP activity assays to determine if the C-terminal nanoluciferase fusion affected agonist activity.
For NanoBRET β-arrestin2 recruitment assays, HEK293T cells were plated onto a six-well plate, and were transfected the following day with β-arrestin2-Venus and either RXFP3-Nluc or RXFP4-Nluc, in the pcDNA3.1/Zeo(+) vector, using Lipofectamine 2000. The next day, cells were washed with DPBS and resuspended in complete media containing 25 mM HEPES but no phenol red, and were seeded into a 96-well CulturPlate (PerkinElmer). […] Emissions were detected simultaneously using a PHERAstar FSX plate reader (BMG Labtech) with 450/80 nm and 535/30 nm filters. Ligand-induced BRET ratio was calculated by subtracting the ratio of 535/30 nm emissions to 450/80 nm emissions for vehicle from the same ratio for ligand-treated wells. […]
In general terms: In BRET a luciferase serves as donor, and the signal depends on an acceptor being close.

Series [4] has as its target T3, RXFP4 (Homo sapiens, UniProt Q8TDU9). The experiment in a line: Eu-R3/I5 competition binding assay in CHO-K1-RXFP4 cells. Set-up: expressed in transfected cells. Particulars: RXFP4, CHO-K1-RXFP4 cells, 5 nM Eu-R3/I5; Table 3; read-out: Eu-R3/I5 pKi (converted). On the procedure: An Eu-R3/15 competition binding assay in CHO-K1-RXFP4 cells was carried out.
as §1
(§4) An additional analogue of INSL5 was utilised as a control, INSL5-A13, having an A chain (SEQ ID NO: 9) and a B chain (SEQ ID NO: 10) with a first disulfide bond between Cys 1 of the A chain and Cys 7 of the B chain, and a second disulfide bond between Cys 14 of the A chain and Cys 19 of the B chain:
as §2

The target in series [5] is T3, RXFP4. Kind of series: Inhibition of forskolin-induced cAMP activity in CHO-K1-RXFP4 cells (pCRE β-galactosidase reporter). Set-up: expressed in transfected cells. Particulars: RXFP4, CHO-K1-RXFP4 cells, 1 μM forskolin, 6 hours; Table 3; read-out: cAMP pEC50 (converted). It is filed as cell-based. On the procedure:
For agonist assays, cells were stimulated with forskolin (5 μM for RXFP3, 1 μM for RXFP4)±increasing concentrations of each peptide for 6 hours. Data were expressed as the % forskolin activity, whereby 100% was defined as forskolin alone and 0% as maximum agonist stimulation (1 μM Analogue 2 for RXFP3 and 1 μM Analogue 13 for RXFP4). Data were analysed and plotted using GraphPad Prism 9 and are expressed as the mean±SEM of the pooled data. Statistical analysis was conducted using one-way ANOVA with Uncorrected Fisher's LSD post-hoc analysis using GraphPad Prism 9.
as §4, §2

Series [6] in a line: In vitro serum stability in human serum at 37° C. Particulars: human serum.
Series [7] deals with T3, RXFP4. Kind of series: NanoBRET β-arrestin2 recruitment assay, RXFP4-NLuc / Venus-β-arrestin2 in HEK293T cells. It is filed as cell-based. Set-up: expressed in transfected cells; host or cells: HEK293T (transient, Lipofectamine 2000, pcDNA3.1/Zeo(+)). Particulars: AUC of the entire time course; text of b227; read-out: pEC50, RXFP4 β-arrestin2 recruitment (converted). On the procedure: as §3
For NanoBRET β-arrestin2 recruitment assays, HEK293T cells were plated onto a six-well plate, and were transfected the following day with β-arrestin2-Venus and either RXFP3-Nluc or RXFP4-Nluc, in the pcDNA3.1/Zeo(+) vector, using Lipofectamine 2000. The next day, cells were washed with DPBS and resuspended in complete media containing 25 mM HEPES but no phenol red, and were seeded into a 96-well CulturPlate (PerkinElmer). The next day, prior to the assay, cells were pre-incubated in phenol red free media with NLuc substrate, 5 μM coelenterazine 400a for RXFP3-nLuc and 5 μM coelenterazine h for RXFP4-NLuc (both from Nanolight, Pinetop, AZ, USA) to establish a baseline, before addition of ligand or vehicle. Emissions were detected simultaneously using a PHERAstar FSX plate reader (BMG Labtech) with 450/80 nm and 535/30 nm filters. Ligand-induced BRET ratio was calculated by subtracting the ratio of 535/30 nm emissions to 450/80 nm emissions for vehicle from the same ratio for ligand-treated wells. […]

For series [8], the target named is T4, RXFP4 (relaxin family peptide receptor 4) on CHO-K1-RXFP4 cells (UniProt Q8TDU9 1-374, limits assumed). The experiment in a line: cell-based or functional assay.
T4 sequence (Q8TDU9 whole entry): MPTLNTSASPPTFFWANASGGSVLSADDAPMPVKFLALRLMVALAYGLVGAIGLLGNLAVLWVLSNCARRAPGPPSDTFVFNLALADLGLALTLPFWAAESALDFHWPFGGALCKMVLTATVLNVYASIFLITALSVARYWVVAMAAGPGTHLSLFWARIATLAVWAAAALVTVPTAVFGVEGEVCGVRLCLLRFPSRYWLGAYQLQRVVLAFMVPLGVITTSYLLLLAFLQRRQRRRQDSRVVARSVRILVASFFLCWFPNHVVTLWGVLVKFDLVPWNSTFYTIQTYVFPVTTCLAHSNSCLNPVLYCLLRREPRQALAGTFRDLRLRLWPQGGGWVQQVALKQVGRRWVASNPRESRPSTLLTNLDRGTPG
The target of series [9] is T5, RXFP3 (relaxin family peptide receptor 3) on CHO-K1-RXFP3 cells (UniProt Q9NSD7 1-469, limits assumed).
T5 sequence (looked up): T1 sequence (Q9NSD7 1-469)
Kind of series: cell-based or functional assay.

For series [10], the target named is T4, RXFP4 (relaxin family peptide receptor …). Kind of series: competition with Eu-R3/I5 on CHO-K1-RXFP4 cells.
For series [11], the target named is T5, RXFP3 (relaxin family peptide receptor …). The experiment in a line: competition with Eu-H3B1-22R on CHO-K1-RXFP3 cells.
For series [12] the target is unchanged. Kind of series: cell-based or functional assay. This is another data set of the same source.
Series [13] has as its target T4, RXFP4 (relaxin family peptide receptor …). The experiment in a line: cell-based or functional assay. This is another data set of the same source.
Series [14] has as its target T6, RXFP3-NLuc (human RXFP3 with Nanoluciferase on the C-terminus) (human, UniProt Q9NSD7 1-469).
T6 sequence (looked up): T1 sequence (Q9NSD7 1-469)
The experiment in a line: cell-based or functional assay.

Series [15] deals with RXFP4-NLuc (nanoluciferase-tagged RXFP4) (UniProt Q8TDU9 1-374). The experiment in a line: cell-based or functional assay.
Sequence of RXFP4-NLuc (nanoluciferase-tagged RXFP4) (Q8TDU9 whole entry): as above
Series [16] concerns the target T5, RXFP3 (relaxin family peptide receptor …). Kind of series: competition with 5 nM Eu-H3B1-22R on CHO-K1-RXFP3 cells.
For series [17], the target named is T4, RXFP4 (relaxin family peptide receptor …). The experiment in a line: competition with 5 nM Eu-DTPA-R3/I5 on CHO-K1-RXFP4 cells.

Broadly, the half-life is the time in which the quantity being followed falls by half. Low readings indicate rapid decline, high ones slow decline. By pKi is commonly meant −log10 of the Ki, conventionally taken in molar units. A low value points to a high Ki.

Square brackets hold non-standard residues; d marks the D form. Ends that are not written are not given here. Peptide text beside a SMILES is read from it. αMeF = C[C@](N)(Cc1ccccc1)C(=O)O

On to `CC[C@H](C)[C@H](NC(=O)[C@H](Cc1ccccc1)NC(=O)[C@](C)(Cc1ccccc1)NC(=O)[C@H](CCCNC(=N)N)NC(=O)CNC(=O)[C@@H](N)CO)C(=O)N[C@@H](CCCNC(=N)N)C(=O)N[C@@](C)(Cc1ccccc1)C(=O)N[C@H](C(=O)N[C@H](C(=O)N[C@@H](Cc1ccccc1)C(=O)N[C@H](C(=O)N[C@@H](CO)C(=O)NCC(=O)NCC(=O)N[C@@H](CO)C(=O)N[C@@H](CCCNC(=N)N)C(=O)N[C@@H](Cc1c[nH]c2ccccc12)C(=O)O)[C@@H](C)O)[C@@H](C)CC)C(C)C` [H3B10-27(13/17αF)] (H-SGR[αMeF]FIR[αMeF]VIFTSGGSRW-OH), for which the Ki was 148 nM at RXFP3 [1] and 155 nM on RXFP4 [4]. Also, the EC50 at RXFP3 [2] was 6.92 nM; at RXFP3 [3] (AUC of NanoBRET time course, Table 4, read-out: RXFP3 pEC50 (β-arrestin2 recruitment) (converted)), 64.6 nM; at RXFP3 [3] (AUC of the entire time course, text of b227, read-out: pEC50, RXFP3 β-arrestin2 recruitment (converted)) it was 89.1 nM; on RXFP4 [5], 55 nM; at RXFP4 [7] it was 2690 nM. The half-life at 400 µg/mL in [6] is roughly 5 h.
For the molecule SGR[αMeF]FIR[αMeF]VIFTSR (14 residues) [H3B10-22R13/17αF (Formula X, RXFP3 antagonist)], the “RXFP4 cAMP pEC50” value in series [8] is less than 5. The “RXFP3 Antagonist potency pIC50” value in [9] amounted to 6.98. The binding result in series [10] was “no binding”. In [11], this molecule returned a pKi of 7.6.

B1: H3B10-27(13/17αF) (peptide)
peptide: SGR[αMeF]FIR[αMeF]VIFTSGGSRW
notes: 18-residue single-chain RXFP3 agonist, non-covalently stapled; also called πH3B; target peptide
As for B1, the “cAMP pEC50” value in series [12] came to 8.16; in [13], 7.26. Also, the “RXFP3 pEC50 (β-arrestin2 recruitment, NanoBRET AUC)” value in [14] was found to be 7.19. The “RXFP4 pEC50 (β-arrestin2 recruitment, NanoBRET AUC)” value in series [15] is 5.57. Moreover, the pKi was found to be 6.83 in series [16] and 6.81 in series [17].
